This note sets out measurements from patent publication US20250049939A1, “NOVEL FLT3 ANTIBODIES AND ANTIBODY-DRUG-CONJUGATES BASED THEREON, THERAPEUTIC METHODS AND USES THEREOF IN COMBINATION WITH TYROSINE KINASE INHIBITORS” (TUBULIS GmbH, priority 2021, published 2025).

Assay [1] relates to ITD mutant human FLT3 (hFLT3ITD). The assay is described as follows: Cell surface binding to Ba/F3 hFLT3ITD, flow cytometry. From the text:
(§1) FIG. 1: Evaluation of epitope specificity and internalization capability of anti-FLT3 monoclonal antibodies. (A) Affinity of seven anti-FLT3 monoclonal antibody (mab) clones to recombinant human FLT3 measured in enzyme-linked immunosorbent assay (ELISA) normalized to the binding of the antibodies to BSA control. […] (B) Schematic FLT3 receptor. Black arrows indicate common mutations and blue arrows indicate the three identified epitopes of seven anti-FLT3 antibodies analyzed in linear epitope mapping by PEPperPRINT. Figure was created with BioRender.com. (C) Binding and temperature induced internalization of anti-FLT3 antibodies in Ba/F3 cells expressing human wildtype FLT3. […] Remaining surface-bound antibody was detected in flow cytometry. […] MFI=mean fluorescence intensity. […] (D) Cell surface binding of 20D9 mab or control human IgG1 antibody to Ba/F3 cells stably expressing pMIY (Ba/F3-pMIY) empty vector (ev), human wildtype (hFLT3 wt) or ITD mutant human FLT3 (hFLT3ITD) was measured in flow cytometry. […] (E) Temperature induced internalization of 4B12 mab in MOLM-13 (FLT3 positive) cells after 30 min incubation at 37° C. compared to 4° C. and HL-60 (FLT3 negative) after 37° C. incubation assessed in immunofluorescence staining. […] (G) Cell surface binding of 20D9 mab or control hIgG1 antibody to Ba/F3-PMIY ev, hFLT3 wt or epitope mutant FLT3 (hFLT3/S50P/P54R) measured in flow cytometry. […]
A general note: In flow cytometry, cells or beads pass a laser one at a time.

In another assay the target is T1, hFLT3/S50P/P54R (Homo sapiens, UniProt P36888, P54R/S50P).
T1 construct: expressed in transfected cells; host or cells: Ba/F3 cells, retrovirally transduced with MSCV-IRES-YFP (pMIY) vector
T1 sequence (P36888 27-993 S50P/P54R): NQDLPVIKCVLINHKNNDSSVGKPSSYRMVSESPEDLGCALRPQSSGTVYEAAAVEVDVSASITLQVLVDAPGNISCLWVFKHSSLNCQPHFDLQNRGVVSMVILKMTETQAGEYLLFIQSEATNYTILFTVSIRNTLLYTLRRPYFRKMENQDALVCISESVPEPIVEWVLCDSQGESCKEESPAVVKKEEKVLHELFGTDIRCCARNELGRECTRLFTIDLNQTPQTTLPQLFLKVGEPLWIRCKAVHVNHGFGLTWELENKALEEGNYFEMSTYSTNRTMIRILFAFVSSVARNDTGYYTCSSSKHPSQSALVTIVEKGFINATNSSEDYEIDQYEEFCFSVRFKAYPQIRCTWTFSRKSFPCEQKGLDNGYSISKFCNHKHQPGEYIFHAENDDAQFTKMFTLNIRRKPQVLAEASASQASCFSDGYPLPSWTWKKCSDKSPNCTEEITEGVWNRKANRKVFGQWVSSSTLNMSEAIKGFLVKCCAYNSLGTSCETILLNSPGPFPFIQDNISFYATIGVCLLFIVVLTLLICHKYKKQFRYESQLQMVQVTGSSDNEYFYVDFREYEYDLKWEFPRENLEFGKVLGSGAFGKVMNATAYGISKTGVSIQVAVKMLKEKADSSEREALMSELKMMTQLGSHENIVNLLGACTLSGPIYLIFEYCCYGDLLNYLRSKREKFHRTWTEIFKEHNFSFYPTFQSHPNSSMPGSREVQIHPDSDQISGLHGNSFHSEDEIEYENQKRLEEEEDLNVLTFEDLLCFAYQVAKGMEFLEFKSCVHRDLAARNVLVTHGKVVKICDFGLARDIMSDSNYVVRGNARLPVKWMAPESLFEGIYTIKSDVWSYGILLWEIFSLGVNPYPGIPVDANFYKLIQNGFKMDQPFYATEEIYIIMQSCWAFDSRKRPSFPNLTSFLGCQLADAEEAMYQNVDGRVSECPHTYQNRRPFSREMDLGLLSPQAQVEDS
Briefly: Cell surface binding to Ba/F3 epitope mutant FLT3, flow cytometry.
Excerpt: as §1

Assay [2] deals with FLT3 mutants FLT3/NPOS, FLT3/D835Y, FLT3/D835V, FLT3/NPOS D835Y, FLT3/NPOS N676K, FLT3/NPOS F6911, FLT3/NPOS F691L. The assay is described as follows: Cell surface binding to Ba/F3 FLT3ITD and TKD mutants. The arrangement: species or system human. Here is the method: For FLT3 expression analysis, cells were stained on ice with primary mouse anti-FLT3-AF647 antibodies for 30 min. For antibody binding studies, cells were stained on ice with chimeric (20D9) or humanized anti-FLT3 antibodies (in house) or IgG1 control with or without Leu234Ala/Leu235Ala (LALA)-mutation in the Fc region and secondary antibody goat F(ab′)2 Anti-Human IgG-AF647 (2042-31) purchased from Southern Biotech for 30 min, respectively. Binding and expression were subsequently measured at the flow cytometer (BD FACSCanto II) and the results were evaluated with FlowJo version 10.8.1.

Assay [3] has as its system PDX AML cells with FLT3-ITD mutation. Briefly: Ex vivo treatment of patient derived xenograft (PDX) samples. It is filed as cell-based, human.

B1: 20D9: chimeric (rat variable regions, human IgG1) anti-FLT3 monoclonal antibody; VH SEQ ID NO: 5, VL SEQ ID NO: 6 (antibody, V domains shown)
VH: DVMLVESGGGLVQPGRSLKLSCVASGFTFNNYWMTWIRQAPGKGLEWIASITKTGGGTYYPDSVKGRFTISRDNAKSTLYLQMNSLRSEDTATYYCTTLQQLGVMDAWGQGASVTVSSA
VL: DVQMTQSPSVLSASVGDRITLNCKASQNINKELNWYQQKLGEAPKLLIYNTNNLQTGIPSRFSGSGSGTDYTLTISSLQPEDVATYFCFQHKSWPLTFGSGTKLEIKR
modifications: Clone 20D9, heavy chain variable region without a signal seqeunce; Clone 20D9, light chain variable region without a signal seqeunce
Regarding B1, the “Binding to Ba/F3 cell lines expressing FLT3-ITD” value in assay [1] is reported as “specific binding”. Also, the “Binding to human FLT3 with epitope region mutated to murine variant (S50P/P54R)” value with hFLT3/S50P/P54R was “not able to bind”. The “Binding to FLT3 with common mutations” value in assay [2] is “also binds to FLT3 with common mutations”. Besides, the “Ex vivo sensitivity of PDX cells” value in assay [3] was “remained ineffective”.
